Assay results as given in US20140336126A1 (INSTITUT PASTEUR, published 2014).

B1: type 1 protein phosphatase catalytic subunit PP1β (enzyme, UniProt P62140 1-327, looked up)
chain: MADGELNVDSLITRLLEVRGCRPGKIVQMTEAEVRGLCIKSREIFLSQPILLELEAPLKICGDIHGQYTDLLRLFEYGGFPPEANYLFLGDYVDRGKQSLETICLLLAYKIKYPENFFLLRGNHECASINRIYGFYDECKRRFNIKLWKTFTDCFNCLPIAAIVDEKIFCCHGGLSPDLQSMEQIRRIMRPTDVPDTGLLCDLLWSDPDKDVQGWGENDRGVSFTFGADVVSKFLNRHDLDLICRAHQVVEDGYEFFAKRQLVTLFSAPNYCGEFDNAGGMMSVDETLMCSFQILKPSEKKAKYQYGGLNSGRPVTPPRTANPPKKR
notes: Endogenous protein or transfected Flag-tagged PP1β (ImaGenes), as said under assay; also called PP1cβ; Flag-tagged-PP1β
B2: HA-Optn Δ131-297 (other)
chain: MSHQPLSCLTEKEDSPSESTGNGPPHLAHPNLDTFTPEELLQQMKELLTENHQLKEAMKLNNQAMKGRFEELSAWTEKQKEERQFFEIQSKEAKERLMALSHENEKLKEELGKLKGKSERSSEDPTDDSREVEALNLQVTSLFKELQEAHTKLSKAELMKKRLQEKCQALERKNSAIPSELNEKQELVYTNKKLELQVESMLSEIKMEQAKTEDEKSKLTVLQMTHNKLLQEHNNALKTIEELTRKESEKVDRAVLKELSEKLELAEKALASKQLQMDEMKQTIAKQEEDLETMTILRAQMEVYCSDFHAERAAREKIHEEKEQLALQLAVLLKENDAFEDGGRQSLMEMQSRHGARTSDSDQQAYLVQRGAEDRDWRQQRNIPIHSCPKCGEVLPDIDTLQIHVMDCII
B3: myosin phosphatase targeting subunit 1 (MYPT1) (other)
chain: MKMADAKQKRNEQLKRWIGSETDLEPPVVKRQKTKVKFDDGAVFLAACSSGDTDEVLKLLHRGADINYANVDGLTALHQACIDDNVDMVKFLVENGANINQPDNEGWIPLHAAASCGYLDIAEFLIGQGAHVGAVNSEGDTPLDIAEEEAMEELLQNEVNRQGVDIEAARKEEERIMLRDARQWLNSGHINDVRHAKSGGTALHVAAAKGYTEVLKLLIQAGYDVNIKDYDGWTPLHAAAHWGKEEACRILVDNLCDMEMVNKVGQTAFDVADEDILGYLEELQKKQNLLHSEKRDKKSPLIESTANMDNNQSQKTFKNKETLIIEPEKNASRIESLEQEKVDEEEEGKKDESSCSSEEDEEDDSESEAETDKTKPLASVTNANTSSTQAAPVAVTTPTVSSGQATPTSPIKKFPTTATKISPKEEERKDESPATWRLGLRKTGSYGALAEITASKEGQKEKDTAGVTRSASSPRLSSSLDNKEKEKDSKGTRLAYVAPTIPRRLASTSDIEEKENRDSSSLRTSSSYTRRKWEDDLKKNSSVNEGSTYHKSCSFGRRQDDLISSSVPSTTSTPTVTSAAGLQKSLLSSTSTTTKITTGSSSAGTQSSTSNRLWAEDSTEKEKDSVPTAVTIPVAPTVVNAAASTTTLTTTTAGTVSSTTEVRERRRSYLTPVRDEESESQRKARSRQARQSRRSTQGVTLTDLQEAEKTIGRSRSTRTREQENEEKEKEEKEKQDKEKQEEKKESETSREDEYKQKYSRTYDETYQRYRPVSTSSSTTPSSSLSTMSSSLYASSQLNRPNSLVGITSAYSRGITKENEREGEKREEEKEGEDKSQPKSIRERRRPREKRRSTGVSFWTQDSDENEQEQQSDTEEGSNKKETQTDSISRYETSSTSAGDRYDSLLGRSGSYSYLEERKPYSSRLEKDDSTDFKKLYEQILAENEKLKAQLHDTNMELTDLKLQLEKATQRQERFADRSLLEMEKRERRALERRISEMEEELKMLPDLKADNQRLKDENGALIRVISKLSK
notes: also called HA-MYPT1; HA-tagged-MYPT1

Columns and labels:
[1] = biological target: B3; experiment: anti-Flag immunoprecipitation of Flag-PP1β, transfected HEK-293T cells (FIG. 4B)
[2] = biological target: B3; experiment: anti-MYPT1 immunoprecipitation, anti-HA Western blot, transfected HeLa cells (FIG. 4D)
[3] = biological target: T1, Optineurin (Optn), wild type (human, UniProt Q96CV9 1-577); experiment: TAP and co-immunoprecipitations, title of FIG. 4
T1 construct: Full-length wild-type human Optn; also called Optn WT; HA-Optn

B1: binds [1].

B2: no binding [2].

B3: binds [3].
